Five molecules from patent US20180208648A1 (SCHOLAR ROCK, published 2018) can be followed below.

The target in assay [1] is T1, human proGDF11 (human, UniProt O95390 25-407, biotinylated (NHS-PEG4-Biotin), site not stated).
T1 construct: Dimeric complex; also called hu proGDF11; GDF11 prodomain complex
T1 sequence: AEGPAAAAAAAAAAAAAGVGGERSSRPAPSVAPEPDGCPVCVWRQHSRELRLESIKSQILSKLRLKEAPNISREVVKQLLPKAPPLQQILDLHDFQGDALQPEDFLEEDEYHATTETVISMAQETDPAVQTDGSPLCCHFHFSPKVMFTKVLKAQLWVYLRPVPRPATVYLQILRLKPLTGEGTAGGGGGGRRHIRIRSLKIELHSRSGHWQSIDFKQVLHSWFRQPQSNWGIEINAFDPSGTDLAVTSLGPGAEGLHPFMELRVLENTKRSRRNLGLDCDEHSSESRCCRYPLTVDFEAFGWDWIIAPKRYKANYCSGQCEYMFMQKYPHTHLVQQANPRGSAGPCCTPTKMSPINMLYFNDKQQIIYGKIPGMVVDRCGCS
Description: BLI (ForteBio Octet).

Assay [2] has as its target T1, human proGDF11. Nature of the assay: cell-based or functional assay.
The target in assay [3] is T2, murine proGDF11 (mouse, UniProt Q9Z1W4 25-405, biotinylated, site not stated).
T2 sequence: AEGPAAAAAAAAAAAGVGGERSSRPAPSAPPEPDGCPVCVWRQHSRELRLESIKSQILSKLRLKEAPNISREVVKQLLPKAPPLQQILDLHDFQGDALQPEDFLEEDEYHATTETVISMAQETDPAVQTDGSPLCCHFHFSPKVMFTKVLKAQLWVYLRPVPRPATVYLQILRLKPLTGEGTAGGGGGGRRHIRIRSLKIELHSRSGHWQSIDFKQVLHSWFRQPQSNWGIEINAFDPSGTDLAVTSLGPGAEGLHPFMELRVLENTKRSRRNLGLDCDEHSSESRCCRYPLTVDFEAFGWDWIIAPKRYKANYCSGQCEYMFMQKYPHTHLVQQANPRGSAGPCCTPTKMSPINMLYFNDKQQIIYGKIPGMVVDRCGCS
Nature of the assay: cell-based or functional assay.

A further assay concerns the target T3, human proGDF8 (human, UniProt O14793 24-375, biotinylated, site not stated).
T3 construct: also called hu proGDF8; human proMyostatin
T3 sequence: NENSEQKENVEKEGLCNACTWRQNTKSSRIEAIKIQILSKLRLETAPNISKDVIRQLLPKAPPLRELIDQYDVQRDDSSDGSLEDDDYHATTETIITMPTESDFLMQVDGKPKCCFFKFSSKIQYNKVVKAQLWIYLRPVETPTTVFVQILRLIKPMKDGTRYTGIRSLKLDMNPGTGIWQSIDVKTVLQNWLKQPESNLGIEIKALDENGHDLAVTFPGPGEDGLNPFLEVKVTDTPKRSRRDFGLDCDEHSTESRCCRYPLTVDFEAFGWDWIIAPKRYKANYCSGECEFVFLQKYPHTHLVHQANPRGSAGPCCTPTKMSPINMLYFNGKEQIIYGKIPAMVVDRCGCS
Description: ELISA, biotinylated antigen on neutravidin plate. The source says:
(§1) Candidate clones were converted to human IgG1 format. Full-length IgG antibodies were further characterized by ELISA for binding to the human and murine pro- and latent-forms of myostatin and GDF11. Antibodies were also screened for binding to the Myostatin prodomain (SEQ ID NO: 85), proTGFDβ1 (human and murine), the mature growth factor of Myostatin (SEQ ID NO: 89), the GDF11 mature growth factor (SEQ ID NO: 90), and proActivin A (SEQ ID NO: 84). Chimeric constructs which swapped portions of the prodomains of Myostatin and GDF11 were designed and produced. For example proGDF11 arm8 (SEQ ID NO: 112) refers to GDF11 having the GDF8 arm domain, and prodomain GDF11 arm8 (SEQ ID NO: 114) refers to the GDF11 prodomain having the GDF8 arm domain. These chimeric proteins were assayed for interaction with screening antibodies by ELISA and allowed for the assessment of binding of antibodies to the ARM or straight jacket portions of the GDF11 prodomain complex. Antibodies were selected based on their cross-reactivity with pro- and latent human and murine GDF11, with no interactions with GDF8, Activin, or TGFβ proteins. Activin A is a homodimer of inhibin-beta A subunits. For example, Inhibin-beta A can heterodimerize with other proteins to produce different Activin proteins.
(§2) Enzyme-linked immunosorbent assay (ELISA) analysis is carried out to assess antibody binding. 96-well ELISA assay plates are coated with neutravidin, a deglycosylated version of streptavidin with a more neutral pH. Target proteins are expressed with or without histidine (His) tags and subjected to biotinylation. Biotinylated target proteins are incubated with neutravidin-coated ELISA assay plates for two hours at room temperature and unbound proteins are removed by washing three times with wash buffer (either 25 mM Tris, 150 mM NaCl, 0.05% TWEEN®-20, or 20 mM Hepes pH 7.5, 500 mM NaCl, 0.05% TWEEN®-20). Primary antibodies being tested are added to each well and allowed to incubate at room temperature for 1 hour or more. Unbound antibody is then removed by washing three times with wash buffer. Secondary antibodies capable of binding to primary antibodies being tested and conjugated with detectable labels are then incubated in each well for 30 minutes at room temperature. Unbound secondary antibodies are removed by washing three times with wash buffer.

The target in assay [4] is T4, human prodomain GDF11 ARM8 (human, biotinylated, site not stated).
T4 construct: GDF11 prodomain having the GDF8 arm domain; also called human GDF11 ARM8 prodomain
T4 chain: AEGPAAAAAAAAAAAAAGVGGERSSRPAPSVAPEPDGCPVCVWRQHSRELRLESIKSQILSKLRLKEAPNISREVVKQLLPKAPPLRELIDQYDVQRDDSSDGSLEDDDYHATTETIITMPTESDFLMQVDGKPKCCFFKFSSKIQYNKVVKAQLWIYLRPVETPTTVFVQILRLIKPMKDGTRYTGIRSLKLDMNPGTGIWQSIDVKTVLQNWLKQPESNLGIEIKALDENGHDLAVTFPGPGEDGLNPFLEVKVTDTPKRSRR
Nature of the assay: ELISA, biotinylated antigen on neutravidin plate.
Description: as §1, §2

The target in a further assay is T5, human mature GDF11 (human, UniProt O95390 299-407, biotinylated, site not stated).
T5 construct: Growth factor domain; also called GDF11 mature growth factor
T5 sequence: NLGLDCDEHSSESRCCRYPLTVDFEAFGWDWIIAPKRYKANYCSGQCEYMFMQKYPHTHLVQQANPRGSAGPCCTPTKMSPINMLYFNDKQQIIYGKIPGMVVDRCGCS
Nature of the assay: ELISA, biotinylated antigen on neutravidin plate.
Description: as §1, §2

In assay [5] the target is T2, murine proGDF11. Nature of the assay: BLI (ForteBio Octet).
For the next assay, the target named is T6, human proGDF11 ARM8 (human, biotinylated, site not stated).
T6 construct: GDF11 having the GDF8 arm domain
T6 chain: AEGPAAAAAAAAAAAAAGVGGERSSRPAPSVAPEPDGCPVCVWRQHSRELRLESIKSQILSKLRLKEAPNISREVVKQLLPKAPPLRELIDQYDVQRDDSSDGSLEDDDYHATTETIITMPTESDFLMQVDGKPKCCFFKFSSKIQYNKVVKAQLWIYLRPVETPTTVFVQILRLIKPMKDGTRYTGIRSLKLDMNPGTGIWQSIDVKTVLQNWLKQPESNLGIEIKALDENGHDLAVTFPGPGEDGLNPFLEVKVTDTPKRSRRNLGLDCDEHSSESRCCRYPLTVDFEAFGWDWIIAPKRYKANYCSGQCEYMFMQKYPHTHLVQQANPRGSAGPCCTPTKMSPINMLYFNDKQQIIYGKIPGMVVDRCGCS
Nature of the assay: ELISA, biotinylated antigen on neutravidin plate.
Description: as §1, §2

The target of assay [6] is T1, human proGDF11. Nature of the assay: cell-based or functional assay. This is another data set of the same source.
A further assay concerns the target T7, human latent GDF11 (human, UniProt O95390 25-407, biotinylated, site not stated).
T7 construct: also called hu latent GDF11
T7 sequence: T1 sequence
Description: BLI (ForteBio Octet).

Assay [7] deals with T1, human proGDF11. Nature of the assay: cell-based or functional assay. The source holds these as a separate data set.
For the next assay, the target named is T8, human proActivin A (human, UniProt P08476 21-426, biotinylated (immobilized on streptavidin biosensors), site not stated).
T8 construct: also called human Activin A; Inhibin-beta A pro-protein
T8 sequence: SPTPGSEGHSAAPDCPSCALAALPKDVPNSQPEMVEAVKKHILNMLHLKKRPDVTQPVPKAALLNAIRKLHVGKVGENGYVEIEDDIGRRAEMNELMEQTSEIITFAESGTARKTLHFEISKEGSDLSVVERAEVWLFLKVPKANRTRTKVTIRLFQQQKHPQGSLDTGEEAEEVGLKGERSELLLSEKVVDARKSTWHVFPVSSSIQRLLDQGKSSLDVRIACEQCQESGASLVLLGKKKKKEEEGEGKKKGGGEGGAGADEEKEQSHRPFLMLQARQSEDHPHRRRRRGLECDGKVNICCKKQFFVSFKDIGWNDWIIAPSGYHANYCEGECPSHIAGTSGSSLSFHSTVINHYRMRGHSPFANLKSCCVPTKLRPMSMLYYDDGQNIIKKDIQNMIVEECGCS
Description: BLI (ForteBio Octet QKe), antigen on streptavidin biosensor, antibody in solution.

B1: GDF11 Inh-6 (antibody, V domains shown)
VH: QVQLQESGPGLVKPSETLSLTCTVSGGSISSSSYYWGWVRQPPGKGLEWIGEIYHSGSTNYNPSLKSRVTISVDTSKNQFSLKLSSVTAADTAVYYCARVGTSWEYYFDYWGQGTLVTVSS
VL: DIQMTQSPASLSASVGDRVTITCRTSQHIINYLNWYQQRPGKAPNLLIYKASTLQSGVPSRFSGSGSGTHFTLTISSLQPEDFATYYCQQYQSYPITFGQGTRLEIKR
notes: also called Clone GDF11 Inh-6
The molecule B1 came in with a Kd with human proGDF11 [1] of 0.75 nM. The “Human proGDF11 % Inhibition (proGDF11 activation assay, CAGA luciferase reporter in 293T cells)” value (from here on “Human proGDF11 % Inhibition”) with human proGDF11 [2] was found to be 77%. Moreover, the “Murine proGDF11 % inhibition (proGDF11 activation assay, CAGA luciferase reporter in 293T cells)” value (from here on “Murine proGDF11 % inhibition”) with murine proGDF11 [3] was 63%. Moreover, the binding result (with human proGDF8; in [4]) was “no binding” throughout.

B2: GDF11 Inh-7 (antibody, V domains shown)
VH: EVQLVQSGGGLVQPGGSLRLSCAASGFTFSSYSMNWVRQAPGKGLEWVSYISSSSSTIYYADSVKGRFTISRDNAKNSLYLQMNSLRAEDTAVYYCARDGIYYDSSGYYDLFDYWGQGTLVTVSS
VL: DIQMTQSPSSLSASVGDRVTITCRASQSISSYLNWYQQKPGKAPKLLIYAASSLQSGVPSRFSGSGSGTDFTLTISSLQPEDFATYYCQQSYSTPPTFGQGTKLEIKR
notes: also called Clone GDF11 Inh-7
B2 returned a dissociation constant (Kd) with human proGDF11 [1] of 2.12 nM. For the same molecule, in the assay with human proGDF11 [2], the “Human proGDF11 % Inhibition” value was 74%. Further, the “Murine proGDF11 % inhibition” value with murine proGDF11 [3] is 53%. The binding result in the assay with human mature GDF11 is listed as “no binding”.

B3: GDF11 Inh-3 (antibody, V domains shown)
VH: QVQLVQSGGGVVQPGRSLRLSCAASGFTFSSYAMHWVRQAPGKGLEWVAVISYDGSNEYYADSVKGRFTISRDNSKNTLYLQMNSLRAEDTAVYYCAKDFWSGYPQYNWFDPWGQGTLVTVSS
VL: EIVMTQSPATLSLSAGERATLSCRASQSVSNYLAWYQQKPGQAPRLLIYDASNRATGIPARFSGSGSGTDFTLTISSLEPEDFAVYYCQQYGSAPLTFGGGTNVEIKR
notes: also called Clone GDF11 Inh-3
Take B3: the dissociation constant (Kd) in the assay with human proGDF11 [1] worked out at 0.71 nM; with murine proGDF11 [5], 0.937 nM. Further, in the assay with human proGDF11 [2], the “Human proGDF11 % Inhibition” value is 87%. Further, the “Murine proGDF11 % inhibition” value with murine proGDF11 [3] amounted to 88%. In addition, the binding result (with human proGDF11 ARM8; with human proGDF8; in assay [4]; with human mature GDF11) was “no binding” in each case.

B4: GDF11 Inh-1 (antibody, V domains shown)
VH: EVQLLESRGGLVQPGRSLRLSCAASGFTFDDYAMHWVRQAPGKGLEWVSGISWNSGSIGYADSVKGRFTISRDNTKNSLYLQMNSLRAEDTGVYYCAREVTGDLDYWGQGTLVTVSS
VL: EIVMTQSPGTLSLSPGERATLSCRASQFLSSTYLAWYQQRPGQAPRLLIYSASNRATGVPDRFSGSGSGTDFTLKISRVEAEDVGVYYCMQATHWPYTFGQGTKLEIKR
notes: also called Clone GDF11 Inh-1
As to B4, the “EC50, proGDF11 activation assay at 50 nM proGDF11” value in the assay with human proGDF11 [6] worked out at 87.1 nM. In addition, the Kd with human proGDF11 [1] was found to be 0.49 nM; in the assay with murine proGDF11 [5] it was 0.848 nM. The “Human proGDF11 % Inhibition” value with human proGDF11 [2] was 91%. Besides, the “Murine proGDF11 % inhibition” value with murine proGDF11 [3] is 80%. Further, the binding result with human mature GDF11 is on record as “no binding”.

B5: GDF11 Inh-5 (antibody, V domains shown)
VH: EVQLVQSGAEVKKPGASVKVSCKASGYTFTGYYIYWVRQAPGQGLEWMGWIRPNSGDTNYAQKFQDRLTMTRDTSISTAYMELSRLRSDDTAVYYCAGNYDILTGYQAPLGYWGQGALVTVSS
VL: DIVLTQSPATLSVSPGERATLSCRASQRVISNYLAWYQQKPGQAPRLLIYGASSRATGIPDRFSGSGSGTDFTLSISRLEPEDFAVYYCQHYGPFGGGTKVEIKR
notes: also called Clone GDF11 Inh-5
As for B5, in the assay with human proGDF11 [6], the “EC50, proGDF11 activation assay at 50 nM proGDF11” value is 30.1 nM. Further, the values for the dissociation constant Kd with human latent GDF11 and with human proGDF11 [1] were under 1 pM and under 0.001 nM, respectively. The “Human proGDF11 % Inhibition” value with human proGDF11 [2] was 96%. Moreover, the “Murine proGDF11 % inhibition” value with murine proGDF11 [3] came out at 90%. Besides, the “EC50 (inhibition of proGDF11 activation; CAGA luciferase reporter in 293T cells after overnight proteolysis)” value in the assay with human proGDF11 [7] was about 30.3 nM. Besides, the binding result in the assay with human proActivin A was “no binding (tested: 50 µg/mL)”.
